Values quoted from earlier work, collected in publication PMC4468388.

Biological target: insulin receptor (Homo sapiens) (UniProt P06213)
UniProt P06213, sequence (P06213 763-1382): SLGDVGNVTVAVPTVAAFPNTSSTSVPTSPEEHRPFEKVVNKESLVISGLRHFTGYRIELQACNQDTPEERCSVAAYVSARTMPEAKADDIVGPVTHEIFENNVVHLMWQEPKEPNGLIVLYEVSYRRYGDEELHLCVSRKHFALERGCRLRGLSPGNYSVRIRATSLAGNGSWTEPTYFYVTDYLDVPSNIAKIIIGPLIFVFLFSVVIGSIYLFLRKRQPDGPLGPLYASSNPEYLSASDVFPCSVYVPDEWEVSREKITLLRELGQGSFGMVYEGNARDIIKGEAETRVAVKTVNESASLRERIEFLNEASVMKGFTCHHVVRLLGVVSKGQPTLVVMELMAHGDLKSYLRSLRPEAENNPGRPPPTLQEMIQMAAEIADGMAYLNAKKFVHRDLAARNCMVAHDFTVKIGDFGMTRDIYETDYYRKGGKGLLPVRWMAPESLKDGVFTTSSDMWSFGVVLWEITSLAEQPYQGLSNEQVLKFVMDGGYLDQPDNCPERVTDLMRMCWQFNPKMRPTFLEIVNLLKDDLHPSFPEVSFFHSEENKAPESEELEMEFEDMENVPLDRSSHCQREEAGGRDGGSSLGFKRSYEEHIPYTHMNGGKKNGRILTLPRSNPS

insulin, sequence (P01308 90-110): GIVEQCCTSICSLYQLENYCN

## insulin (from UniProt P01308)
  Kd: < 1 nM
